According to paper PMC2878558 (The Journal of Biological Chemistry, 2010):

B1: VAMP7(119–180) (domain or fragment, human, UniProt P51809 119-180, looked up)
chain: ENKGLDKVMETQAQVDELKGIMVRNIDLVAQRGERLELLIDKTENLVDSSVTFKTTSRNLAR
B2: VAMP7(1–118) (domain or fragment, human, UniProt P51809 1-118, looked up)
chain: MAILFAVVARGTTILAKHAWCGGNFLEVTEQILAKIPSENNKLTYSHGNYLFHYICQDRIVYLCITDDDFERSRAFNFLNEIKKRFQTTYGSRAQTALPYAMNSEFSSVLAAQLKHHS

Columns and labels:
VAMP7(1–118) = target: B2; assay: NMR titration
SEC-MALS = target: the molecule itself; assay: SEC-MALS

| binding result (VAMP7(1–118)) | Binder | stoichiometry N (SEC-MALS) |
| --- | --- | --- |
| binds | B1 | – |
| – | B2 | 2 |
